Results as given in patent US10704030B2, “P450-BM3 variants with improved activity” (Codexis, Inc., priority 2015, dated 2020).

Assays:
Format in all cases: biochemical
[1] = Validation of generalist properties: oxidation of gefitinib by lyophilized P450-BM3 variant, UPLC-MS; conditions: [Gefitinib] = 1 mM
In short: (§1)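 Lyophilized lysate of E. coli-expressed P450-BM3 variant (stock standardized to 12 μM heme) was incubated 24 h at 30 °C with 1 or 2 mM substrate, 1.0 mM NADP+, 25 mM glucose, 0.5 mg/mL glucose dehydrogenase and 5% DMSO in 100 mM potassium phosphate. Acetonitrile-quenched samples were analyzed by UPLC-MS (positive ESI).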

[2] = Validation of generalist properties: oxidation of diclofenac by lyophilized P450-BM3 variant, UPLC-MS; conditions: [Diclofenac] = 1 mM
In short: as §1

[3] = Validation of generalist properties over the four substrates screened
Method: For the production of lyophilized protein powders, LB agar plates supplemented with chloramphenicol (30 μg/mL) were streaked with E. coli containing a desired B. megaterium P450-BM3 variant in an IPTG-inducible vector. The plates were grown at 37° C. for 16 hrs before single clones were selected to inoculate a 15 mL Falcon™ tube (Fisher) containing TB media (3 mL) supplemented with chloramphenicol (30 μg/mL). The tube was shaken at 200 rpm, 30° C., and 85% humidity for 20-24 h to grow the cultures to saturation. Then, 2.5 mL of the overnight culture was used to inoculate sterile 1 L flasks containing TB medium (250 mL) supplemented with chloramphenicol (30 μg/mL), trace element solution (as described above), and 0.05 g/L ammonium iron (III) citrate. After being shaken at 250 rpm, 30° C., and 85% humidity to an OD600 of 0.8-1.2, P450 expression was induced by addition of IPTG (500 uM) and the heme precursor 5-aminolevulinic acid (5-ALA) to a final concentration of 500 uM. The cultures were grown for additional 20-24 hours and centrifuged in pre-weighed 250 mL centrifuge bottles for 20 minutes at 4000 rpm, 4° C. The supernatants were discarded, and the centrifuge bottles containing cell pellets were weighed. The pellets were resuspended in 50 mM potassium phosphate buffer with 2 mM DTT, pH 8.0 (5 mL of buffer per gram of cell pellet). The cells were lysed using a microfluidizer homogenizer, and the suspensions of cells and lysate were collected in sterile 50 mL centrifuge tubes. The samples were centrifuged for 30 minutes at 10,000 rpm, 4° C. The clarified lysate was collected into a plastic petri plate and frozen at −80° C. prior to lyophilization. The enzyme-containing lysates were lyophilized using standard methods known in the art.
Enzyme stocks (˜12 μM) were prepared by dissolving ˜20 mg of each enzyme in 100 mM potassium phosphate buffer, pH 8.0 (1 mL). The concentration of each enzyme stock solution was determined by the UV-visible absorption spectroscopy (after centrifugation to remove particulates) and diluted to standardize at 12 μM heme protein. Substrate solutions were prepared by dissolving each substrate in DMSO to reach a final concentration of 20 mM or 40 mM. Reaction mix (235 μL) followed by enzyme solution (50 μL) was added to the plates. The substrate stock solution was added to the enzyme solutions (15 μL at the two different concentrations). Each reaction contained 100 mM potassium phosphate, 1.0 mM NADP+, 25 mM glucose, 0.5 mg/mL glucose dehydrogenase, 5% DMSO and substrate at 1 or 2 mM. Loratadine, imatinib, and gefitinib (See, FIG. 1) were selected as substrates in addition to diclofenac to validate improved BM3 variants. The reactions were shaken at 450 rpm at 30° C. over 24 hours. All reactions were diluted with acetonitrile to a final concentration of 0.5 mM substrate. The plates were then centrifuged at 3,000 g for 1 hour at 20° C. The supernatant was diluted 1:1 with acetonitrile, filtered using a 0.4 micron filter, and analyzed by UPLC-MS.
For UPLC-MS analysis, the quenched and filtered reactions were transferred to 96-well HTP plates for analysis by UPLC on a Waters Acquity H-class system equipped with an autosampler. 1 uL of quenched sample was injected onto an Acquity UPLC HSS T3 column, 100 Å, (1.8 um; 2.1×100 mm). […] Column eluent was monitored by PDA (200-600 nm) prior to MS analysis in positive ESI mode (desolvation temperature 350° C., 3.25 kV spray voltage, cone voltage 25V). […]

[4] = Validation of generalist properties: oxidation of imatinib by lyophilized P450-BM3 variant, UPLC-MS; conditions: [Imatinib] = 1 mM
In short: as §1

[5] = Validation of generalist properties: oxidation of loratadine by lyophilized P450-BM3 variant, UPLC-MS; conditions: [Loratadine] = 1 mM
In short: as §1

[6] = TON = [substrate]*% conversion/[P450]
[7] = fold improvement over parent MCYP-1.2-A12

B1: Variant 16: P450-BM3 variant of SEQ ID NO: 6: K32R; C48S; Y52F; G115R; L216Y; D232H; E349K; M491A; T577A; E619D; A627S; D722S (protein)
chain: MTIKEMPQPKTFGELKNLPLLNTDKPVQALMRIADELGEIFKFEAPGSVTRFLSSQRLIKEACDESRFDKNLSQALKFARDFLGDGLFTSWTHEINWKKAHNILLPSFSQQAMKRYHAMMVDIAVQLVQKWERLNADEHIEVSEDMTRLTLDTIGLCGFNYRFNSFYRDQPHPFIISMVRALDEVMNKLQRANPDDPAYDENKRQCQEDIKVMNDYVDKIIADRKARGEQSHDLLTQMLNGKDPETGEPLDDGNISYQIITFLIAGHETTSGLLSFALYFLVKNPHVLQKVAEEAARVLVDPVPSYKQVKQLKYVGMVLNEALRLWPTAPAFSLYAKEDTVLGGEYPLKKGDEVMVLIPQLHRDKTIWGDDVEEFRPERFENPSAIPQHAFKPFGNGQRACIGQQFALHEATLVLGMMLKHFDFEDHTNYELDIKETLTLKPEGFVVKAKSKKIPLGGIPSPSTEQSAKKVRKKAENAHNTPLLVLYGSNAGTAEGTARDLADIAMSKGFAPQVATLDSHAGNLPREGAVLIVTASYNGHPPDNAKQFVDWLDQASADEVKGVRYSVFGCGDKNWAATYQKVPAFIDETLAAKGAENIADRGEADASDDFEGTYEEWRDHMWSDVASYFNLDIENSEDNKSTLSLQFVDSAADMPLAKMHGAFSTNVVASKELQQPGSARSTRHLEIELPKEASYQEGDHLGVIPRNYEGIVNRVTARFGLSASQQIRLEAEEEKLAHLPLAKTVSVEELLQYVELQDPVTRTQLRAMAAKTVCPPHKVELEALLEKQAYKEQVLAKRLTMLELLEKYPACEMKFSEFIALLPSIRPRYYSISSSPRVDEKQASITVSVVSGEAWSGYGEYKGIASNYLAELQEGDTITCFISTPQSEFTLPKDPETPLIMVGPGTGVAPFRGFVQARKQLKEQGQSLGEAHLYFGCRSPHEDYLYQEELENAQSEGIITLHTAFSRMPNQPKTYVQHVMEQDGKKLIELLDQGAHFYICGDGSQMAPAVEATLMKSYADVHQVSEADARLWLQQLEEKGRYAKDVWAG
modifications: P450_BM3
notes: C48S; Y52F; G115R; L216Y; D232H; E349K; M491A; T577A; E619D; A627S; D722S
% Conv. [1]: ++++ (15.01-20.00) | TON [1, 6]: ‡‡‡‡ (10000-50000) | FIOPC (A12) [1, 7]: **** (10.01-15.00) | % Conv. [2]: ++++ (15.01-20.00) | TON [2, 6]: ‡‡‡‡ (10000-50000) | FIOPC (A12) [2, 7]: * (0.0-3.0) | performance (% conversion at 1 mM substrate loading) over the substrates screened, in words [3]: improved and significant activity for three out of four substrates screened | % Conv. [4]: ++++ (15.01-20.00) | TON [4, 6]: ‡‡‡‡ (10000-50000) | FIOPC (A12) [4, 7]: **** (10.01-15.00) | % Conv. [5]: + (0-5.00) | TON [5, 6]: ‡ (0-1000) | FIOPC (A12) [5, 7]: * (0.0-3.0)
